Measured values reported in patent publication US11130801B2, “Method for inhibiting platelet derived growth factor signaling with C3aR or C5aR antibodies” (CASE WESTERN RESERVE UNIVERSITY, priority 2011, dated 2021).

Legend:
[1] = test system: NIH-3T3 cells, bEND.3 ECs, TC-1 cancer cells; experiment: Cell cycle assay (propidium iodide staining) of serum starved cells; format: cell-based; conditions: C5a added to serum starved cells; identical to EGF or VEGF-A
Protocol: Because this dependence of growth factor responsiveness on C3aR/C5aR signaling could be indirect, i.e., a consequence of its requirement for viability, we performed cell cycle assays.
(§1) Propidium iodide staining was performed as described previously […]. In brief, the cells were serum starved for 24 hrs followed by administration of 1 μM colchicine (Sigma). 16 hrs following colchicine treatment, cells were given either growth factor treatment or 17 ng/mL mC5a. After an additional 24 hrs, cells were removed from plating via Trypsin/EDTA and fixed in 0.25% Formaldehyde for 10 mins at 37° C. Cells were spun out of formaldehyde solution and resuspended in 90% methanol at 4° C. until assayed. Following removal from methanol, excess RNA was removed via treatment with RNase (Sigma) and stained with propidium iodide for 30 mins at 4° C. Cells were analyzed on an Epics XL.

[2] = test system: HUVEC; experiment: Cell cycle assay of serum starved HUVEC; format: cell-based; conditions: identical to adding VEGF-A
Protocol: as §1
Because the disruptive effect of C3aR/C5aR antagonism on VEGF growth induction could be a consequence of the requirement of autocrine C3aR/C5aR signaling for EC viability, we performed cell cycle assays. […] These findings that autocrine C3aR/C5aR signaling not only prevents EC apoptosis but drives EC growth point to a bidirectional signaling mechanism wherein C3aR/C5aR GPCR signaling transactivates to VEGFR2 signaling and vice versa.

[3] = test system: NIH-3T3 cells; experiment: Cell cycle assay of serum starved NIH-3T3 cells (PDGF study); format: cell-based; conditions: identical to adding PDGF
Protocol: as §1
PDGF contributes to atherogenesis and plays a central role in neointimal proliferation following EC injury. […] Following determination of optimal PDGF-AA doses, we incubated 1×10^5 cells/well in triplicate with 30 ng/ml of PDGF-AA±10 ng/ml of C3aR and C5aR antagonists (C3aR-A/C5aR-A), 10 ng/ml of anti-C3a/anti-C5a mAbs or respective controls, after which we quantified cell growth by counting cell numbers over time. […] To directly establish whether C5aR signals augment PDGF-AA growth signaling, we 1) quantified the effect of added C5a one growth, and 2) assayed C5a in culture supernatants of PDGF-AA treated cells. […]

[4] = test system: VEGFR2; experiment: VEGFR2 phosphorylation immunoblot in serum starved primary WT aortic ECs; format: cell-based, murine; conditions: added C5a, relative to untreated controls
Protocol: FIG. 21 illustrates an immunoblot of VEGFR2 phosphorylation. C5a or VEGF-A was added to serum starved primary cultures of WT murine ECs in the absence or presence of C3aR-A/C5aR-A and VEGFR2 phosphorylation assessed by immunoblotting with anti […] mAb.
To directly establish whether C3aR/C5aR signaling is integral to VEGF signaling, we next evaluated phosphorylation of VEGFR2. We tested 1) how adding C5a to primary WT ECs affects VEGFR2 autophosphorylation and 2) whether VEGFR2 phosphorylation induced by added VEGF-A is affected by antagonizing C3aR/C5aR signaling. We incubated serum starved WT aortic ECs with C5a or with VEGF-A in the absence or presence of C3aR-A/C5aR-A, after which we probed immunoblots of protein lysates and anti-pVEGFR2^Y1054/1059 mAb or pan VEGFR2 antibody.

[5] = test system: NIH-3T3 fibroblasts; experiment: PDGF-AA growth induction of NIH-3T3 fibroblasts (cell counts over time); format: cell-based; conditions: added C5a by itself
Protocol: PDGF contributes to atherogenesis and plays a central role in neointimal proliferation following EC injury. In view of the growth difference of primary cultured Daf1^−/−, WT, C3aR^−/−C5aR^−/−, and C3^−/−C5^−/−SMCs, we examined whether C3aR/C5aR signals are interconnected with PDGF growth induction. For these studies, we utilized NIH-3T3 fibroblasts (which express PDGFR-αα) in conjunction with PDGF-AA. Following determination of optimal PDGF-AA doses, we incubated 1×10^5 cells/well in triplicate with 30 ng/ml of PDGF-AA±10 ng/ml of C3aR and C5aR antagonists (C3aR-A/C5aR-A), 10 ng/ml of anti-C3a/anti-C5a mAbs or respective controls, after which we quantified cell growth by counting cell numbers over time. […] To directly establish whether C5aR signals augment PDGF-AA growth signaling, we 1) quantified the effect of added C5a one growth, and 2) assayed C5a in culture supernatants of PDGF-AA treated cells. […] Because the dependence of PDGF growth induction on C3aR/C5aR signaling could be indirect, i.e., a consequence of its requirement for viability, we performed cell cycle assays.

[6] = test system: HUVEC; experiment: Complement mRNA transcripts in HUVEC by qPCR; format: cell-based; conditions: added C3a or C5a
Protocol: FIG. 33 illustrates charts showing qRT-PCR analysis of C3, factor B and factor D transcripts from HUVEC under hypoxia. A) HUVEC treated with TNF-α, IL-1, and IFN-γ. Blue bars represent samples after treatment. B-C) HUVEC stimulated with C3a (10 ng/ml for 2 hr) or C5a (10 ng/ml for 30 min) Blue bars represent control without C3a/C5a stimulation while red bars represent samples after stimulation. D) HUVEC incubated for 1 hr with FCCP+IAA. Blue bars represent control without hypoxia treatment while yellow bars represent two samples after hypoxia treatment.
We next conversely assessed how transducing C3aR/C5aR signals into ECs affects endogenous EC complement production and whether it is connected with “classical” EC responses. We incubated HUVEC with 1) inflammatory cytokines, 2) the mitochondrial uncoupler protonophore carbonyl cyanide p-(trifluoromethoxy)phenylhydrazone (FCCP)+iodoacetate (IAA) (which mimics hypoxia), or 3) C3a or C5a, after which we assayed complement mRNA transcripts by qPCR. […]
ECs and leukocytes locally synthesize C3/fB/fD/C5 and the elicited C3a/C5a signal through C3aR/C5aR on the same cells to amplify this synthesis. To determine whether ECs locally synthesize AP complement components, we added IL-1/IFN-γ/TNF-α to HUVEC, 1 hr after which we quantified C3 and fB transcripts by qPCR. […]

[7] = test system: Raji, Jurkat, U937 cells, primary mΦs, B cells, and DCs; experiment: AP and C5 gene transcription in leukocytes by qPCR; format: cell-based; conditions: 10 nM C5a
Text: ECs and leukocytes locally synthesize C3/fB/fD/C5 and the elicited C3a/C5a signal through C3aR/C5aR on the same cells to amplify this synthesis. To determine whether ECs locally synthesize AP complement components, we added IL-1/IFN-γ/TNF-α to HUVEC, 1 hr after which we quantified C3 and fB transcripts by qPCR. […] To test whether leukocytes that are recruited to sites of EC injury locally synthesize AP components and C5a similarly feeds back in them to amplify local complement production, we stimulated Raji, Jurkat, U937 cells, primary mΦs, B cells, and DCs with 10 nM C5a. This documented induction of AP and C5 gene transcription by qPCR.

[8] = test system: C5aR; experiment: Proinflammatory gene transcription induced by C5aR signaling; format: cell-based; conditions: added C5a
Text: In view of the connections of MCP-1 and other proinflammatory cytokines with atherosclerosis and the mechanistic linkage of DAF deficiency with potentiated C3aR/C5aR transduction, we tested whether C5aR signaling induces proinflammatory gene transcription. Added C5a induced the mRNA transcription of chemotactic MCP-1/IL-8, proinflammatory IL-1β/IL-6 and growth inductive GM-CSF.

B1: C5a: complement activation fragment (anaphylatoxin) added to cells (protein, UniProt P01031 678-751, looked up)
C5a anaphylatoxin: TLQKKIEEIAAKYKHSVVKKCCYDGACVNNDETCEQRAARISLGPRCIKAFTECCVVASQLRANISHKDMQLGR
modifications: C5a anaphylatoxin
With B1 the “cell cycle transition after adding C5a” value [1] was “transition from G0 into G2”, the “cell cycle transition after adding C5a” value [2] was “transition from G0 into G2” and the “cell cycle transition after adding C5a” value [3] was “transition from G0 into G2”. The “VEGFR2 Y1054/1059 phosphorylation” value [4] was “increased”, the “proliferation of NIH-3T3 cells” value [5] was “induced proliferation” and the “production of AP components by ECs” value [6] was “more AP components”. For the same molecule, the “transcription of C3” value [6] was “increased”, the “AP and C5 gene transcription” value [7] was “induction” and the “mRNA transcription of MCP-1/IL-8, IL-1β/IL-6 and GM-CSF” value [8] was “induced”.
